Results on 1 molecule are retold here after publication PMC10296741, “One Single Tube Reaction of Aptasensor-Based Magnetic Sensing System for Selective Fluorescent Detection of VEGF in Plasma”.

For this series, the target named is VEGF-165 (UniProt P15692-4 27-191). The experiment in a line: magnetic bead capture with fluorescent complementary probe (fluorescence rebound); 50 uM KCl, 1 mM Mg2+, pH 7.0; linear 0.2-2.0 ng/mL VEGF in plasma, LOD 0.0445 ng/mL; 1X TBSE: 10 mM Tris, 0.05 mM EDTA, 100 mM NaCl, 1 mM MgCl2, 50 uM KCl, pH 7.0; 0.1 uM aptamer (95 C 3 min, cooled), 25 C, 45 min. The note with it: protein: commercial; chain copies: 2; label: 5'-biotin; G-quadruplex.
Chain of VEGF-165 (P15692 other isoform, or with tags, fused parts or gaps): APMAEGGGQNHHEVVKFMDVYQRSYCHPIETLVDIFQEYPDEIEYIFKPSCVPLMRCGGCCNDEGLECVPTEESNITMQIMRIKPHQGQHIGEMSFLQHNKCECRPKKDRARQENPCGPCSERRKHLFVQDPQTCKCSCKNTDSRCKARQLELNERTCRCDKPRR

Turning to TGTGGGGGTGGACGGGCCGGGTAGA (structured_DNA) [VEGF aptamer (APT)], the binding result is “binds”.
